± gives the standard deviation of the averaged measurements.
System: ATP
Assay: switch fluorescence ratio, 500 uM ATP over buffer (Cy3 cluster intensity, sum of 5 cycles each) (fold (ratio)); higher = stronger signal-on switching upon ATP binding; sequences stand for … in TCGTCGGCAGCGTCAGATGTGTATAAGAGACAGTTTTTTTTTTTTTTTTTTTTTTTTT…TC
Settings: aptamer strand: ATP DNA aptamer (quencher-CACCTGGGGGAGTATTGCGGAGGAAGG + anchor), 100 nM annealed; ATP concentration: 500 uM
How it was run: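 Cy3-labelled switching-strand clusters on a modified Illumina MiSeq flow-cell were annealed to 100 nM quencher-labelled ATP aptamer, imaged in selection buffer, then imaged after 15 min with 500 uM ATP at 22 °C. Five buffer/ATP cycles ran, with NaOH stripping and re-annealing between them. The fluorescence ratio is summed target-cycle over summed buffer-cycle Cy3 intensity per cluster, averaged per switch-domain sequence. Clusters outside 100-1000 RFU were excluded.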
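Also: ATP exposure 15 min at 22 °C before imaging.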

Sequence	switch fluorescence ratio
TGGGTTGGAT	0.99 ± 0.013
TTATGGGCGT	1.02 ± 0.02
CTTGTCATCT	1.005 ± 0.0061
CAGATGGTGT	1.02 ± 0.015
GATTAATGAG	1.01 ± 0.027
CGGTCAGGGG	1.11 ± 0.023
AAAAAAGTTC	0.984 ± 0.022
TTGTTTTCTT	1 ± 0.045
ATCTAAAGTT	1.023 ± 0.0016
ATGCCAAAAG	1.01 ± 0.042
GAATAAAAAC	1.01 ± 0.013
GAGTGCGAAC	1.05 ± 0.082
AGTTAAAGTG	1.03 ± 0.057
TGCTCCTGTA	1 ± 0.024
ATCGGGACGA	0.955 ± 0.0099
ATGGGGGGAG	0.997 ± 0.025
AATTCCGGCG	1.12 ± 0.098
CGTGAGGGTC	1 ± 0.059
ATATTGGAAG	1.011 ± 0.01
TCGTTACAGG	1.045 ± 0.0051
TGATCGGGCG	1.04 ± 0.02
ATTTCGACAC	1.0254 ± 0.001
GGGGGCTATG	0.99 ± 0.015
GTAAGTTGGG	0.993 ± 0.024
TTGATCGGGC	1.03 ± 0.052
TAAGCCATCT	1.04 ± 0.054

Sequence	switch fluorescence ratio
GCACGTGTTC	1.119 ± 0.0096
TTTTGGCCTT	0.997 ± 0.015
CGGTGCTTTT	1 ± 0.011
ATCGATTATC	0.988 ± 0.021
TAAAGCAGTA	0.995 ± 0.018
GATGTTTGGC	1.05 ± 0.013
TGGGTATGAA	0.977 ± 0.019
TACGGGACGC	1.12 ± 0.047
TTTTACCGTT	1.02 ± 0.015
GTTGTAGCGG	1 ± 0.029
TCTTGGGCAT	1.01 ± 0.04
GGACGAAGGG	1.09 ± 0.018
CTATTGAAGT	0.9838 ± 0.0073
GGGGGAACAC	1.05 ± 0.044
ATGTGCCAGT	0.962 ± 0.012
CCCGGCCATT	1.05 ± 0.013
AGTCCGATTT	1.03 ± 0.061
GGATGGCGGT	0.9846 ± 0.0069
ACTCATAATT	1.0222 ± 0.00042
CTAATTGTAG	0.9884 ± 0.0029
TGTTGTGTGG	1.02 ± 0.027
GATTTGCTTT	0.98 ± 0.013
CCAATTGGTG	1.03 ± 0.016
TTGTGGGTAG	1.02 ± 0.043
AGGGTGAAAG	0.992 ± 0.023
ACTCCTCTTT	1.093 ± 0.0093

Sequence	switch fluorescence ratio
AATTGGAAGT	1.01 ± 0.04
GGGAGATTAG	0.979 ± 0.015
GGTTATGAGG	0.994 ± 0.031
CATGTATGGA	1.01 ± 0.041
CGACACGCTG	1.05 ± 0.058
TAGGATGCAC	1.014 ± 0.0033
GCTATAGCGT	0.9958 ± 0.0063
TATTAGAGCG	1.02 ± 0.025
TCGTCAGGTG	2.48 ± 0.084
GGGGGATGG	0.994 ± 0.016
TAGAGCTAAT	1.09 ± 0.17
GGCCTGGTTT	1.03 ± 0.057
TTATGCCGGT	1.02 ± 0.068
TCAAAGTTTT	1.01 ± 0.023
CCTCATAGTC	1.413 ± 0.0066
GGTTTGGGTT	0.998 ± 0.037
TTTGGGGTCC	1.07 ± 0.1
GTTCGGGTTG	0.988 ± 0.027
GGGTTAAATT	1.01 ± 0.038
TGTATTGTGG	0.987 ± 0.021
AGGAGAGGTG	1.102 ± 0.002
GTTCTTTGTG	1 ± 0.012
GGTTTAGGGA	0.996 ± 0.039
TGCTTTTCTT	0.996 ± 0.018

Source: the supplement of paper PMC10126150
